Source: paper PMC10039067, “Temporal and spatial assembly of inner ear hair cell ankle link condensate through phase separation” (Nature Communications, 2023)
Where “and” joins values, the source holds several entries; their conditions need not be identical. Equal values may be shown once. Read-outs that look alike come from different tables or passages of the source. One block for each molecule: values may come before it.

B2: WHRN NPDZ12 (domain or fragment, UniProt Q9P202 33-377, looked up)
chain: RLLSANVRQLHQALTALLSEAEREQFTHCLNAYHARRNVFDLVRTLRVLLDSPVKRRLLPMLRLVIPRSDQLLFDQYTAEGLYLPATTPYRQPAWGGPDSAGPGEVRLVSLRRAKAHEGLGFSIRGGSEHGVGIYVSLVEPGSLAEKEGLRVGDQILRVNDKSLARVTHAEAVKALKGSKKLVLSVYSAGRIPGGYVTNHIYTWVDPQGRSISPPSGLPQPHGGALRQQEGDRRSTLHLLQGGDEKKVNLVLGDGRSLGLTIRGGAEYGLGIYITGVDPGSEAEGSGLKVGDQILEVNGRSFLNILHDEAVRLLKSSRHLILTVKDVGRLPHARTTVDETKWIAS
notes: WHRN, residues 33-377 (NTD, PDZ1 and PDZ2) of UniProtKB Q9P202; Cloned into pET.32M.3C; Named Trx-WHRN NPDZ12 in SEC-MALS; also called Trx-WHRN NPDZ12; Whirlin; source: E. coli BL21 (DE3), purified (Ni2+-NTA, size-exclusion chromatography); not shown: Trx, N-terminal, kept

What was measured:
WHRN NPDZ12 [1] = molecular target: B2; assay: ITC; MicroCal iTC200, 25 °C; 50 mM tris pH 7.5-8.0, 300 mM NaCl, 1 mM DTT, 1 mM EDTA; cell 20–50 µM, syringe 400–800 µM; one-site binding model
[2] = molecular target: the molecule itself; assay: SEC-MALS; single proteins at 50 μM; Superose 12 10/300 GL or Superdex 200 increase 10/300 GL; 50 mM tris, 300 mM NaCl, 1 mM DTT, 1 mM EDTA
WHRN NTD = molecular target: T1, WHRN NTD (UniProt Q9P202 33-117); assay: ITC
T1 chain: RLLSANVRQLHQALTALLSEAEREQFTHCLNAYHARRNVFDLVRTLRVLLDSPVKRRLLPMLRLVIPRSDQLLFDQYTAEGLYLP

USH2A-CT = USH2A-CT (UniProt Q2QI47); assay: SEC-MALS; single proteins at 50 μM; Superose 12 10/300 GL or Superdex 200 increase 10/300 GL; 50 mM tris, 300 mM NaCl, 1 mM DTT, 1 mM EDTA
WHRN NPDZ1 [3] = molecular target: T2, WHRN NPDZ1 (UniProt Q9P202 33-239); assay: ITC; MicroCal iTC200, 25 °C; 50 mM tris pH 7.5-8.0, 300 mM NaCl, 1 mM DTT, 1 mM EDTA; cell 20–50 µM, syringe 400–800 µM; one-site binding model
T2 chain: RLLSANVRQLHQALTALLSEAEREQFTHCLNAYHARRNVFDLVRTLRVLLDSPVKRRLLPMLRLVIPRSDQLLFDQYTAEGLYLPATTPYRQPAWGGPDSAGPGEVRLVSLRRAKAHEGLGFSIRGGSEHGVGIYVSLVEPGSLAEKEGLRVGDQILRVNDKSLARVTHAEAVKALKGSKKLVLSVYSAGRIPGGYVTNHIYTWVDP

WHRN PDZ1 = WHRN PDZ1 (UniProt Q9P202); assay: as above
WHRN NPDZ1 [4] = molecular target: T2, WHRN NPDZ1; assay: ITC
WHRN NPDZ12 R223H = molecular target: T3, WHRN NPDZ12 R223H (UniProt Q9P202 33-377, R223H); assay: ITC; MicroCal iTC200, 25 °C; 50 mM tris pH 7.5-8.0, 300 mM NaCl, 1 mM DTT, 1 mM EDTA; cell 20–50 µM, syringe 400–800 µM; one-site binding model
T3 construct: WHRN, residues 33-377 of UniProtKB Q9P202 with the deafness-related mutation R223H; source: E. coli BL21 (DE3), purified (Ni2+-NTA, size-exclusion chromatography)
T3 sequence (looked up): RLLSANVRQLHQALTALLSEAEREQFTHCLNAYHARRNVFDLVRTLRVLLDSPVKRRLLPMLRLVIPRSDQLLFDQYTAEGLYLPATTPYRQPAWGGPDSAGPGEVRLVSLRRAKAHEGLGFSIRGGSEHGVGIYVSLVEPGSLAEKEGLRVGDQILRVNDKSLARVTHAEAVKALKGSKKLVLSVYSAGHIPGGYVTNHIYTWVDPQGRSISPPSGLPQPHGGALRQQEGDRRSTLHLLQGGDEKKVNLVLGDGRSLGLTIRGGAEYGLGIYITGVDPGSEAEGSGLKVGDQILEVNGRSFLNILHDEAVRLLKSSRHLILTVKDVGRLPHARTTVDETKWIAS

WHRN NPDZ12 A64D = molecular target: T4, WHRN NPDZ12 A64D (UniProt Q9P202 33-377, A64D); assay: as above
T4 construct: WHRN, residues 33-377 of UniProtKB Q9P202 with the deafness-related mutation A64D; Mutant made by PCR-based mutagenesis; the ClinVar ids are tied to the mutations by their printed order; source: E. coli BL21 (DE3), purified (Ni2+-NTA, size-exclusion chromatography)
T4 sequence (looked up): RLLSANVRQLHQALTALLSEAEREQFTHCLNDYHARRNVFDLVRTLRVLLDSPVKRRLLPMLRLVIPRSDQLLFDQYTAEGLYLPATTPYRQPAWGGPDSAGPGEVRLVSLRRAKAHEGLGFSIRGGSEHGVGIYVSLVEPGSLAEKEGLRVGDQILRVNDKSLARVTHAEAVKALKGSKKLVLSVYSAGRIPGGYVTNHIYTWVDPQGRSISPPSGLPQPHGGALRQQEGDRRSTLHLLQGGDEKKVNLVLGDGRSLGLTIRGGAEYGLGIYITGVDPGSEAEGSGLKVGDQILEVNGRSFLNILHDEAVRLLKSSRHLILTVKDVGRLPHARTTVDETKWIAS

WHRN NPDZ12 T110A = molecular target: T5, WHRN NPDZ12 T110A (UniProt Q9P202 33-377, T110A); assay: as above
T5 construct: WHRN, residues 33-377 of UniProtKB Q9P202 with the deafness-related mutation T110A; source: E. coli BL21 (DE3), purified (Ni2+-NTA, size-exclusion chromatography)
T5 sequence (looked up): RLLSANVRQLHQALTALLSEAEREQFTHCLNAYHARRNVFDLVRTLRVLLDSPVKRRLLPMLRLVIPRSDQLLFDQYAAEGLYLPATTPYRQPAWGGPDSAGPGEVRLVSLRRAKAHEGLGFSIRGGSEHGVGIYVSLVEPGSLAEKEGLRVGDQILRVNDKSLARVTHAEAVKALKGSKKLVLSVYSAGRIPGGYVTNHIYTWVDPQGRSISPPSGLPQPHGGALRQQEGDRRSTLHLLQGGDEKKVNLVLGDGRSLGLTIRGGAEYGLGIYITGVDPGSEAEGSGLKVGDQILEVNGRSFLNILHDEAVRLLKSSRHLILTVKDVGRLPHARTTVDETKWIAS

WHRN NPDZ12 [5] = molecular target: B2; assay: SEC-MALS; mixtures, each component around 30 µM; Superose 12 10/300 GL or Superdex 200 increase 10/300 GL; 50 mM tris, 300 mM NaCl, 1 mM DTT, 1 mM EDTA
PDZD7 PDZ12 M285R = molecular target: T6, PDZD7 PDZ12 M285R (UniProt E9Q9W7 84-289, M285R); assay: ITC
T6 sequence: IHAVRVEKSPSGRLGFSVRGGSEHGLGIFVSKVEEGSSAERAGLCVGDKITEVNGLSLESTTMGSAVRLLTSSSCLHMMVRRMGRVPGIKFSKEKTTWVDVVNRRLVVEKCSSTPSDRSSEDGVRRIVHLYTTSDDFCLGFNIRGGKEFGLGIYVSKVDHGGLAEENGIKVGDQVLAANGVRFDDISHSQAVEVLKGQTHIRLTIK

PDZD7 PDZ12 G228R = molecular target: T7, PDZD7 PDZ12 G228R (UniProt E9Q9W7 84-289, G228R); assay: ITC
T7 sequence: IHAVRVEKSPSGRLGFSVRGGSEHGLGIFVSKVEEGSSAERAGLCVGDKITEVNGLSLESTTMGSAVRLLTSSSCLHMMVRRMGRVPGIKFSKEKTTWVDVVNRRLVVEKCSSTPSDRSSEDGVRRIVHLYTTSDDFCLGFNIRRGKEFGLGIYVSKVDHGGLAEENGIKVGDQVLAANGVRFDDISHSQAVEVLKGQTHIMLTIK

PDZD7 PDZ1 = PDZD7 PDZ1 (UniProt E9Q9W7); assay: ITC; MicroCal iTC200, 25 °C; 50 mM tris pH 7.5-8.0, 300 mM NaCl, 1 mM DTT, 1 mM EDTA; cell 20–50 µM, syringe 400–800 µM; one-site binding model
PDZD7 PDZ1, sequence (E9Q9W7 81-167): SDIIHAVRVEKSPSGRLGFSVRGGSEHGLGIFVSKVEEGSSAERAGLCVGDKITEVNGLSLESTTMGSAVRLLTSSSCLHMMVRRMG

PDZD7 PDZ12 = PDZD7 PDZ12 (UniProt E9Q9W7); assay: as above

Molecule: ADGRV1-CT △PBM (from UniProt Q8VHN7 6239-6298) (domain or fragment)
Kd (WHRN NPDZ12 [1]): 9.5 µM

B1: WHRN NTD (domain or fragment, UniProt Q9P202 33-117, looked up)
chain: RLLSANVRQLHQALTALLSEAEREQFTHCLNAYHARRNVFDLVRTLRVLLDSPVKRRLLPMLRLVIPRSDQLLFDQYTAEGLYLP
notes: WHRN N-terminal domain, residues 33-117 of UniProtKB Q9P202; also called N-terminal domain; HHD1; source: E. coli BL21 (DE3), purified (Ni2+-NTA, size-exclusion chromatography)
binding result [2]: binds

Molecule: B2
stoichiometry N [2]: 2

B4: ADGRV1-CT (domain or fragment, UniProt Q8VHN7 6239-6298, looked up)
chain: GSLIADEESQEFDDLIFALKTGAGLSVSDNESGQGSQEGGTLTDSQIVELRRIPIADTHL
notes: ADGRV1 cytoplasmic region, residues 6239-6298 of UniProtKB Q8VHN7; Named Trx-ADGRV1-CT in SEC-MALS; also called Trx-ADGRV1-CT; VLGR1-CT; source: E. coli BL21 (DE3), purified (Ni2+-NTA, size-exclusion chromatography); not shown: Trx, N-terminal, kept
Kd (WHRN NTD): 31 µM
Kd (WHRN NPDZ1 [4]): 9 µM
Kd (WHRN NPDZ12 [1]; both partners purified): ~1.4 µM
Kd (WHRN NPDZ12 R223H; both partners purified): 3.3 µM
Kd (WHRN NPDZ12 A64D; both partners purified): 0.41 µM
Kd (WHRN NPDZ12 T110A; both partners purified): 0.55 µM
stoichiometry N (WHRN NPDZ12 [5]; both partners purified): 2 copies per WHRN dimer and 1 copy per WHRN dimer (three proteins mixed)

Now from value to molecule:

Kd (WHRN NTD): 19 µM
stoichiometry N (USH2A-CT): 2
Kd (WHRN NPDZ1 [3]): 5.1 µM
Kd (WHRN PDZ1): 1.2 µM
Kd (WHRN NPDZ12 [1]): 0.68 µM
B3: USH2A-CT (domain or fragment)
chain: PSQSQLSHAYSQSSLHRSVSQLMDMADKKVVTEDSLWETIMGHSSGLYVDEEELMNAIKGFSSVTKEHTAFTDTHL

Kd (PDZD7 PDZ12 M285R): 8.5 µM
Kd (PDZD7 PDZ12 G228R): 56 µM
Kd (PDZD7 PDZ1): 66 µM
Kd (PDZD7 PDZ12): 15 µM
Kd (WHRN NPDZ12 [1]): 2.7 µM
Kd (WHRN NPDZ12 R223H): 4.7 µM
Kd (WHRN NPDZ12 A64D): 5.5 µM
Kd (WHRN NPDZ12 T110A): 16 µM
stoichiometry N (copies per WHRN dimer) (WHRN NPDZ12 [5]): 2
stoichiometry N (WHRN NPDZ12 [5]; scale: copy per WHRN dimer): 1
B5: USH2A-CT (Short, S) (domain or fragment)
chain: GHSSGLYVDEEELMNAIKGFSSVTKEHTAFTDTHL
